Experimental data taken from PMC6294567, “The C-terminal D/E-rich domain of MBD3 is a putative Z-DNA mimic that competes for Zα DNA-binding activity” (Nucleic Acids Research, 2018).
“And” between values parts separate entries of the source, which are not always exact repeats. Equal entries are not always repeated. Primed or numbered codes have the meaning given here. Where no end group is shown, it is not given here. FITC′ = fluorescein isothiocyanate label

Tests used:
[1] = biological target: Zα, tag-free (Z-DNA binding domain of human ADAR1, residues 133-209) (human) (UniProt P55265); assay: fluorescence polarisation; competition: unlabelled peptide added to the pre-incubated mixture of Zα and 6-FAM-d(CG)6 duplex; 20 mM HEPES-NaOH pH 7.5, 50 mM NaCl, 1 mM DTT; dose-response (variable slope) model
[2] = biological target: MBDDE (MBD domain of MBD3 connected to the acidic tail; residues 263–291), tag-free (human) (UniProt O95983); assay: SEC; Zα (400 μM) and MBDDE (100 μM), or Zα and MBD under the same conditions, 4:1 molar ratio; 20 mM Tris-HCl pH 7.5, 50 mM NaCl, 1 mM TCEP; Superdex 75 10/300 GL; fractions on SDS-PAGE
[3] = biological target: T1, Zα and 6-FAM-d(CG)6 duplex (Homo sapiens, UniProt P55265); assay: FP competition: displacement of Zα binding to 6-FAM-d(CG)6
T1 construct: Zα of human ADAR1; residues 133–209; His6 (pMCSG7, followed by a TEV site) (N, cleaved yes); made in house; host or cells: E. coli BL21(DE3)
T1 sequence (P55265 133-209): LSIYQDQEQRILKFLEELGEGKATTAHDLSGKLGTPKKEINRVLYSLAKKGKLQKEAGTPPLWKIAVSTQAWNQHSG

[4] = biological target: T2, MBD3 (full-length human MBD3; residue 1–291), tag-free (human), O95983; assay: SEC; purified MBD3 alone on Superdex 200 increase 10/300 GL against protein standards; conditions: remark: other sources report otherwise
T2 chain: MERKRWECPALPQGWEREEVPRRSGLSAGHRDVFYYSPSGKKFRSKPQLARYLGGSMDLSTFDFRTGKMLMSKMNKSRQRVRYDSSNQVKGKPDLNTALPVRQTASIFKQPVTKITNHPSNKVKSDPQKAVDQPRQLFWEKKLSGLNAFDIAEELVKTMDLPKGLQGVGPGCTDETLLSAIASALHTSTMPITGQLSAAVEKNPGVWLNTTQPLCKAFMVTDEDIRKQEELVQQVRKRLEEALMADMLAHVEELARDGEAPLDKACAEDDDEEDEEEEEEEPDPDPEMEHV

[5] = biological target: T3, Zα, tag-free (Z-DNA binding domain of human ADAR1, residues 133-209) (human), P55265; assay: fluorescence polarisation; competition: unlabelled peptide added to the pre-incubated mixture of Zα and 6-FAM-d(CG)6 duplex; 20 mM HEPES-NaOH pH 7.5, 50 mM NaCl, 1 mM DTT; dose-response (variable slope) model
T3 chain: T1 sequence (P55265 133-209)

[6] = biological target: T4, MBD domain of MBD3 (residues 1–72), tag-free (human, UniProt O95983-1 1-72); assay: FP
T4 chain: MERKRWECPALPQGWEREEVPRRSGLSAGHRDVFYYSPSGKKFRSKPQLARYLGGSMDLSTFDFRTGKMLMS

[7] = biological target: T5, Zα, tag-free (Z-DNA binding domain of human ADAR1, residues 133-209) (human, UniProt P55265 133-209); assay: fluorescence polarisation; FITC-labelled D/E-rich peptide against titrated protein; 20 mM HEPES-NaOH pH 7.5, 50 mM NaCl, 1 mM DTT; one-site total binding model; conditions: both partners purified
T5 construct: Zα domain of human ADAR1, residues 133-209; from pMCSG7-Zα; source: E. coli BL21(DE3), purified (Ni-NTA, TEV cleavage, reverse Ni-NTA, gel filtration); not shown: His6, N-terminal, cleaved
T5 sequence (looked up): T1 sequence (P55265 133-209)

Sso7d = biological target: T6, Sso7d (UniProt P39476 1-64); assay: as above; conditions: both partners purified
T6 sequence (looked up): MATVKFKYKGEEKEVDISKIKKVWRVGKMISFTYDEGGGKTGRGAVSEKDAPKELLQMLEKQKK

[8] = biological target: the molecule itself; assay: SEC; purified MBDDE or MBD alone on Superdex 75 10/300 GL against protein standards
Zα = biological target: T7, Zα (Homo sapiens, UniProt P55265); assay: SEC / SDS-PAGE complex formation with Zα; assay type: binding
T7 construct: Zα of human ADAR1; residues 133–209; His6 (pMCSG7, followed by a TEV site) (N, cleaved yes); made in house; host or cells: E. coli BL21(DE3)
T7 sequence (P55265 133-209): T1 sequence (P55265 133-209)
Experimental: Equimolar amounts (0.1 mM) of Zα and DE-rich peptide were incubated on ice for 1 h in a buffer containing 20 mM HEPES–NaOH pH 7.5, 50 mM NaCl, 1 mM DTT. The mixture was then loaded on a Superdex 30 16/600 column (GE Healthcare) equilibrated in the same buffer. The fractions from the peaks corresponding to Zα alone and the complex of Zα and DE-rich peptide were collected and used for chemical cross-linking.
To analyze complex formation of Zα and other proteins (MBD3, MBD or MBDDE), the mixtures were incubated on ice for 1 h in a buffer containing 20 mM Tris–HCl pH 7.5, 50 mM NaCl, 1 mM TCEP. The mixture was then loaded on a Superdex 75 or Superdex 200 increase 10/300 column (GE Healthcare).

[9] = Stability of E. coli-expressed protein; assay type: physicochemical; conditions: recombinant E. coli-expressed protein
d(CG)6 duplex = assay: Circular dichroism of d(CG)6 DNA conformation
Experimental: CD spectra were measured at 24°C on a J-815 Spectrometer (JASCO) using a 1 mm path length quartz cell. Prepare 7.5 μM DNA duplex in a buffer consisting of 5 mM HEPES–NaOH pH 7.5, 25 mM NaCl and 1 mM DTT, and in the absence or presence of indicated concentration of proteins. Spectra were recorded between 235 and 305 nm wavelength with a data pitch of 1 nm, bandwidth of 1 nm and with two accumulations at a scanning speed of 10 nm/min.
Figure 6. Zα can compete with the MBD domain for binding to d(CG)6, but not vice versa. (A) CD spectra of the d(CG)6 duplex in the presence of Zα. CD spectra of (B) the d(CG)6 and (C) the d(C^mG)6 duplex, respectively, in the presence of the MBD domain. (D) Monitoring of the change in CD spectra with the addition of increased amounts of Zα to the pre-incubated mixture of the MBD domain and d(CG)6. (E) Monitoring of the change in CD spectra with the addition of increased amount of the MBD domain to the pre-incubated mixture of Zα and d(CG)6. Spectra are expressed in absolute values of ellipticity in millidegrees (mdeg).

endogenous ADAR1 = assay: FLAG immunoprecipitation of endogenous ADAR1 in 293F cells; assay type: cell-based, human; conditions: anti-ADAR1 western blot
Experimental: For expressing FLAG-MBD3 and its mutants in 293F cells (Freestyle™ 293 Expression System; Invitrogen), the DNA fragments were PCR amplified and inserted into HindIII site of pFLAG-CMV-2 vector (Sigma-Aldrich). The plasmids were purified by EasyPrep EndoFree Maxi Plasmid Extraction Kit (BIOTOOLS Co., Ltd, Taiwan) and transiently transfected into 293F cells using 293fectin (Invitrogen) according to the manufacturer's guidelines.
After 48 h posttransfection, the cells were washed with cold PBS and lysed with lysis buffer [50 mM Tris–HCl pH 7.5, 0.3% NP-40, 100 mM potassium acetate, 10% glycerol, 50 U/ml Benzonaes (Novagen) and EDTA-free protease inhibitor cocktail tablet (Roche)]. The lysates were incubated with anti-FLAG M2 Affinity Gel (A2220; Sigma-Aldrich) on a rotation at 4°C overnight. […] The immunoprecipitates were eluted by FLAG peptide (F4799; Sigma-Aldrich) and resolved by a NuPAGE 12% Bis–Tris gel (Invotrogen). Specific antibodies used for western blotting were Rabbit anti-FLAG (1:5000; F7425; Sigma-Aldrich) and rabbit anti-ADAR1 D7E2M (1:1000; 14175; Cell Signaling Technology).

Molecule: poly-L-glutamic acid (1500–5500 Da; Sigma) peptide
- IC50 [1]: 1 to 3.7 µM

Molecule: Zα, tag-free (Z-DNA binding domain of human ADAR1, residues 133-209) (from UniProt P55265 133-209) (domain or fragment)
- stoichiometry N [2]: 1 Zα per MBDDE and 2 Zα per MBDDE

Molecule: poly-L-glutamic acid [polyE]
- competition with d(CG)6 for binding to Zα (in words) ([3]; 6-FAM-d(CG)6): could compete with Zα binding to d(CG)6, although the efficiency was lower than full-length D/E-rich peptide
- concentration at 50% displacement (IC50) ([3]; pre-incubated Zα and 6-FAM-d(CG)6, triplicate, 95% CI 3.4–8.9 μg/ml): 5.5 mg/L

B1: MBD3 (full-length human MBD3; residue 1–291), tag-free, O95983-1 1-291 (natural protein)
chain: T2 chain
- stoichiometry N [4]: 2

B2: D/E-rich peptide of MBD3, unlabelled (full-length D/E-rich peptide) (peptide)
chain: DKACAEDDDEEDEEEEEEEPDPDP
modifications: not checked
- IC50 [5]: 0.164 µM

B3: D/E-rich peptide of MBD3, FITC-labelled (peptide)
chain: {FITC′}-DKACAEDDDEEDEEEEEEEPDPDP
- Kd [6]: 0.0212 µM
- Kd [7]: 0.0291 ± 0.0017 µM
- Kd (Sso7d): 1.1 ± 0.2 µM

B4: MBDDE (MBD domain of MBD3 connected to the acidic tail; residues 263–291), tag-free (domain or fragment, human, UniProt O95983-1 1-72, looked up)
chain: MERKRWECPALPQGWEREEVPRRSGLSAGHRDVFYYSPSGKKFRSKPQLARYLGGSMDLSTFDFRTGKMLMSDKACAEDDDEEDEEEEEEEPDPDPEMEHV
notes: MBD domain of human MBD3; its limits (1-72) are those printed for the MBD3MBD construct; No linker between the two stretches is mentioned; The protein was partly degraded from the C-terminal disordered region by mass spectrometry; source: E. coli BL21(DE3), purified (Ni-NTA, TEV cleavage, reverse Ni-NTA, gel filtration); not shown: His6, N-terminal, cleaved
- stoichiometry N [8]: 2

B5: MBDDE: MBD domain of MBD3 connected to the acidic tail; residues 263–291 (protein)
chain: B4 chain
modifications: left off: His6, N-terminal, cleaved
- efficiency of interaction with Zα relative to D/E peptide (Zα; SEC, Zα and MBDDE): less efficiently than with D/E peptide
- complex formation with Zα on SEC (Zα; Zα 100 μM : protein 25 μM (4:1), ice 1 h, 20 mM Tris–HCl pH 7.5, 50 mM NaCl, 1 mM TCEP): could not detect stable complex formation of Zα and MBDDE
- complex formation with Zα on SEC (Zα; Zα 400 μM : MBDDE 100 μM (4:1), ice 1 h, Superdex 75, pH 7.5): a small amount of MBDDE and Zα complex was detected
- protein stability (in words) [9]: more sensitive to protease than the MBD domain

B6: MBD domain: MBD domain of MBD3; residues 1–72 (protein)
chain: T4 chain
modifications: left off: His6, N-terminal, cleaved
- complex formation with Zα on SEC (Zα; Zα : MBD 4:1 molar ratio, Superdex 75 10/300 GL): no complex formation was detected
- DNA conformation after binding (d(CG)6 duplex; CD 235-305 nm, 24°C, 7.5 μM DNA duplex, 5 mM HEPES–NaOH pH 7.5, 25 mM NaCl, 1 mM DTT): kept the duplex DNA in B-form
- competition for binding to d(CG)6 (MBD domain added to pre-incubated Zα and d(CG)6) (d(CG)6 duplex; CD, increasing MBD domain): could not compete with the binding of Zα and Z-DNA

B7: FLAG-MBD3: FLAG-tagged full-length MBD3 transiently expressed in 293F cells (protein)
chain: T2 chain
modifications: left off: FLAG, end not stated, kept
notes: FLAG-tagged full-length MBD3 transiently expressed in 293F cells
- co-immunoprecipitation of ADAR1-p110 (lacking Zα) (endogenous ADAR1; 293F cells, FLAG-IP): also pulled down
- co-immunoprecipitation of endogenous ADAR1 (endogenous ADAR1; transient expression in 293F cells, anti-FLAG resin): endogenous ADAR1 was indeed pulled down
